{"source": "the nanobody polyreactivity screen of Harvey et al. (2022)", "assay": "yeast display, Sf9 membrane polyspecificity reagent, FACS + sequencing; frameworks hold sequencing errors", "outline": "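Galactose induction of a Saccharomyces cerevisiae BJ5465 synthetic nanobody display library ran 36–48 hours. The cells were then stained for 1 hour at 4 °C with 10% biotinylated, detergent-solubilized Sf9 membrane reagent, pulled down on streptavidin microbeads and FACS-sorted into low and high (top ~1%) gates on expression and reagent-binding fluorescence. Labels for polyreactivity follow the gate of origin.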", "data": [{"sequence": "QVQLVESGGGLVQAGGSLRLSCAASGITVLKYVMGWYRQAPGKEREFVAAITARGGTTYYADSVKGRFTISRDNAKNTVYLQMNSLKQEDTAVYYCAARSYYSGLAYYYWGQGTQVTVSS", "values": [{"measurement": "polyreactivity (PSR sort gate)", "result": "high polyreactivity"}]}, {"sequence": "QVQLVESGGGLVQAGGSLRLSCAASGFTFLGYDMGWYRQAPGKERELVATISSGGRTYYADSVKGRFTISRDNAKNTVYLQMNSMKPEDTAVYYFAAPRFRRLDFDFWGQGTQVTVSS", "values": [{"measurement": "polyreactivity (PSR sort gate)", "result": "low polyreactivity"}]}, {"sequence": "QVQLVESGGGLVQAGGSLLLSCAASGFTLPSYAMGWYIQAPGKERELVAAISSTGRTYYADSVKGRFTISRDNAKNTVYLQMNSLKPEDTAVYYCAARQDTWDAYLSTGEFDYWGQGTQVTVSS", "values": [{"measurement": "polyreactivity (PSR sort gate)", "result": "high polyreactivity"}]}, {"sequence": "QVHLQESGGGLVQAGGSLRLSCAASGTIFRFRNMGWHRQAPGKERELVAGINGGTTTYYADSVIGRFTISRDNAKNTVYLQMNSLKPDDTAVYNCAAGASRLTYYDYWGQGTQVTVSS", "values": [{"measurement": "polyreactivity (PSR sort gate)", "result": "low polyreactivity"}]}, {"sequence": "QVQLVESGGGLVQAGGSLRLSCAASGSTFICKAMGWYRQAPGKERELVAAIDYRGGNTYYADSVKGRFTISRDYAKNSVYLHMNSLKPEHTAVYYCAARVVGYEYFYDYYYWGQGTQVTLSS", "values": [{"measurement": "polyreactivity (PSR sort gate)", "result": "low polyreactivity"}]}, {"sequence": "QVQLVESGGGLVQAGGSLRLSCAASGRIFHYNAMGWYRQAPGKERELVAAISTGGSTNYADSVKGRFTISRDNAKNTVYLQMNSLKPEDTAVYYCAADHPVTYPTTKFDYWGQGTQVTVSS", "values": [{"measurement": "polyreactivity (PSR sort gate)", "result": "low polyreactivity"}]}, {"sequence": "QDQLVESCGGLVQAGGSHRLTCAASGGTSWIYAMGWYRQAPRKARELVAVITWSGGSTYYADSVKGRFTISRDTAKNTVYLQMNSLKPEDTAVYYCATDYTGKWKDHYYYWGQGTQVTVSS", "values": [{"measurement": "polyreactivity (PSR sort gate)", "result": "low polyreactivity"}]}, {"sequence": "QVQLVESGGGLVQAGGSLRLSCAASGIIFDYNAMGWYRQAPGKERELVAAITWSGSSTFYADSVKGRFTISHDNAKNTVYLLMNSLKPEDTAVYYCNAEYYWGTYANFDYWGQGTQVTVSS", "values": [{"measurement": "polyreactivity (PSR sort gate)", "result": "low polyreactivity"}]}, {"sequence": "QVQLVESGGGLVQAGGSLRLSCAASGLTFYRYAMGWYRQAPGKEMELVAAIRVSGNTYYADSVKGPFTISRDNAKNTVYLEMNCLKPEDTAVYYCAAKPYYFYGMDYWGQGTQVTVSS", "values": [{"measurement": "polyreactivity (PSR sort gate)", "result": "high polyreactivity"}]}, {"sequence": "QVQLVESGGGLVQAGGSLRLSCDASGSIFATYAMGWYRQAPGKERELVAAIRRSTGTTYYADSVKGRFTISRDNAKNTVYLQMNSLKPEDTAVYYCAALFRPRVHRYDYWGQGTLVTVSS", "values": [{"measurement": "polyreactivity (PSR sort gate)", "result": "low polyreactivity"}]}, {"sequence": "QVQLVESGGGLVQAGGSLRLSCAASGFTFVINDMGWYRQAPGKERELVADITSGGDTNYADSVKGRFTISRDNAKNTVYFQMNSLKPEDTAVYYCAADIYPDWIYLLFGYWGQGTQVTVSS", "values": [{"measurement": "polyreactivity (PSR sort gate)", "result": "low polyreactivity"}]}, {"sequence": "QVQLQESGGGLVQAGGTITLGYEMGWYRQAPGKEREFVAGIDTGAITYYADSVKGRFTNSRDNAKNTVYLQMNSLKPEDTAVYYCAAIQTHTYAHSYWGQGTQVTVSS", "values": [{"measurement": "polyreactivity (PSR sort gate)", "result": "high polyreactivity"}]}, {"sequence": "QVQLQESGGGLVQAGGSLRLSCAASGSIFLLHIMCWYRQAPGKERESVAAISYGTSTYYADSVNGRFTICRDNAKNTVYLQMNSPKPDDTAVYYCAALFLVSKHHHFWGEGTQVTVSS", "values": [{"measurement": "polyreactivity (PSR sort gate)", "result": "low polyreactivity"}]}, {"sequence": "QGQHVESGGGLVQARGSRRLSCAPSGRTFGYDAMGWYRQAPGKERELVAAINYSGVSTYYADSVKGGFTISRDTAKNTVYLQRNSLKPEDTAGSYCAAKGRYSVYSRNSWGQGTQVTVSS", "values": [{"measurement": "polyreactivity (PSR sort gate)", "result": "high polyreactivity"}]}, {"sequence": "QVQLVESGGGLVQARGSLRLSCAASGSIFNLYAMGWYRQAPGKEREFVASISYSGGSTYYADSVKGRFTISRDNAKNTVYLQINSLKPEDTAVYYCNARLEVYGQRYDYWGQGTQVTVSS", "values": [{"measurement": "polyreactivity (PSR sort gate)", "result": "low polyreactivity"}]}, {"sequence": "QVQLVESGGGLVQAGGSLRLSCAASGSISRQYALGWYRQAPGTERELVAAITVRGGSTYYADSVKGRFTISRDNAKNTVYLQMNSLKPEDTAVYYCAKYTRYSASYDYWGQGTQVTVSS", "values": [{"measurement": "polyreactivity (PSR sort gate)", "result": "high polyreactivity"}]}, {"sequence": "QVQLVESGGGLVQAGGSLRLTCAASGYKFKSNVMGWYRQAPGKERELVAAISWSGGRTYYADSLKGRFTISRDNAKNTVYLQMNSLKPEDTAVYYCAAVGRQSNYYVDYDYWGQGTQVTVSS", "values": [{"measurement": "polyreactivity (PSR sort gate)", "result": "high polyreactivity"}]}]}
